Here are results for 8 substances from paper PMC4046817.

What all share (conditions): EMSA/footprinting in LrpB binding buffer (ref. 27); composition, pH and temperature not given
A general note: Mobility shift assays separate free from complexed probe on a gel.

Data set [1] deals with T1, Ss-LrpB (Sulfolobus solfataricus P2?) (UniProt Q7LX67).
T1 sequence: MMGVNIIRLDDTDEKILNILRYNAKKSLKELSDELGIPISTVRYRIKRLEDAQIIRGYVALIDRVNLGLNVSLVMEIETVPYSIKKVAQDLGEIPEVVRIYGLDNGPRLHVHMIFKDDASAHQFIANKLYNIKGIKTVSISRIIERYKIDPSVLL
Briefly: EMSA.

Data set [2] concerns the target T1, Ss-LrpB (Sulfolobus solfataricus P2?). Nature of the data set: in-gel Cu-OP footprinting.
Data set [3] concerns Ss-LrpB (Sulfolobus solfataricus P2?). Briefly: EMSA.

Turning to “AATCTTTCATTCCTCCTCTTATATGGATTATTACTGGTTTGTTTTCTTTTTCGGCTATTTGCAAAAATTTCTCCAGAACTTCTATTTGTTTTTTCCTAAGATCCTCGTCTTTTATCCAAAAGTAATCTAAACCGACTTCACTTATTATCTTCCCATACCTAGTTAATTCCAAACACTTATCAATCTCATTAACCTTATCCTTTACAAATTCTGGATG (double strand) [Sso0046 fragment]”, the binding result in data set [1] is “no binding”.

For “AGTATCTCGTTAATAACATCGTCTTTGTTACCTTCAAAGAACTCTGCATATATTATTTCGTCGTAAAGAATTAGATATCCTTTTGCACTAGTCAGCAGAGAATATTTATATCCTCTACATCCCTCACAATAACCTCTAACCTCTTTAACTAGTAAATGTTCAATCACAGATAGTTTAATATTTCCTTTTTCAATTATTTCTATATCATTATCTTTTTTAACTGATAATCTCTTAGCTAAATAATAAAGTGCGACCTGA (double strand) [Ssot36 fragment]”, the binding result in data set [1] is “no binding”. The same measure, in the same setting: the result for “ATATGTATATTCAAGCCATTTAGATGAGATAAGGAAAAATAAAGAATTCTATGATATGATTGCAGAGATACTACAAAGGTATTACAAAAAAATAGGCATAGAGAATGTGAATCAGTTGATACTAACTACTATAAAATAGTTCGTATGTCGAACCTTTCTTTACCGAATTCATTATATATCC (double strand) [Sso6904 fragment]” reads “no binding”. In general, Kd refers to the equilibrium constant for the complex coming apart. Consider “CCTTTACTCTTCATGCGACCAATTTTAGTTGTAATTAATTTAACAATTTCTGGTCGCAAGGATTTTATGTTAAATTGAAACATTGGGTATCATTTATAAACGTTCAATTATTATAGAAAGATTCGTTTCGGTCGCATTGAGACTCGAACTTTCACACTTTTAAACAACTTCATAAAAACGAAGTTTGAAGTTCTCTATTTGATAATAATGTTTCACTGATTTCGTATCATATCGAAAAATATTTTTTATCTCTTATCGCTCTCCTTTCATC (double strand) [CRISPR4 (CRISPR B leader) fragment]”, for which the dissociation constant (Kd) in data set [1] came out at 63 nM. Moreover, the binding entry in data set [2] is recorded as “binds”. As for “CGCATTAGAAGTAAAGAACGTAAATACTATGGCAGGAGTGTTATTACCAGCAAGGAACTTGGCATTAGCTAGGGAAATGGGGGCCGATGCGGTAGTTTCAGCTTGTCCTGGTTGTCACTATTCCTTATCTAGAACTCAATATTATCTGACTAAATACCCCAAATTAAGAGAAAAGACTAATATGTATTTAGAAAAAATGGGTACTAAGAATTATGATCTAAAGTTAATGCTAGTTCACGCTGTTGAATATATTTACAATA (double strand) [Sso1135 fragment]”, the binding entry in data set [1] is “binds”. Take CRISPR4 (CRISPR B leader) fragment: in data set [3], the Kd worked out at 63 nM.

For the substance Sso0049 Box 1 fragment, the Kd in data set [3] turned out to be 150 nM. Consider “TGGAGAAGATGACGAAATGGTATTAAAGGAACATTCAATTACCTTATGTGATACAATAAAAAGGATGGGAGGGGATTGCGAGTTGCATATAATTCCGAAAATGAAGCACACACCTTTAGGGCAACAGTATCAAACAATTTGGAGTATAATTGAGGATTGGATAAAGAGGAATAGTTCTAGTTTTTAACCAGTTTGTGCCCAGTTCTCATACCTCATGAGTTCATTTCTACCCTTATCTTTAGCCACAATGTCTAGA (double strand) [Sso1433 fragment]”, for which the binding result in data set [1] was “binds”.
